Measurements published in patent EP4775675A1 (Shanghai Hongcheng Biopharmaceutical Co., Ltd., dated 2026).
Substitutions are numbered along the chain they refer to. Like-named read-outs stand apart in the source and are kept apart here. One block for each binder: values may come before it.

Legend:
[1] = biological target: T1, human BDCA-2 on cells (Jurkat-hBDCA-2 cells; human pDCs; human PBMCs) (human, UniProt Q8WTT0 1-213); assay: flow cytometry on Jurkat-hBDCA-2 cells
T1 construct: whole, on cells; also called CD303; CLEC4C
T1 sequence (looked up): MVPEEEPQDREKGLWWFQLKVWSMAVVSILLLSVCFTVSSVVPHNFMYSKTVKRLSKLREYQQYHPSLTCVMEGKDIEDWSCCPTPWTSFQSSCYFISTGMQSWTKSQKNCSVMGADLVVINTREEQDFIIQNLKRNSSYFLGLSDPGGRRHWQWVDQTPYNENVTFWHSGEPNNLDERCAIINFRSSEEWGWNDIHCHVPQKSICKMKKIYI

[2] = biological target: T2, cynomolgus monkey BDCA-2 on cells (Jurkat-cynoBDCA-2 cells; cynomolgus monkey pDCs) (cynomolgus monkey, UniProt A0A2K5UWP4 1-212); assay: flow cytometry on Jurkat-cynoBDCA-2 cells
T2 construct: whole, on cells
T2 sequence: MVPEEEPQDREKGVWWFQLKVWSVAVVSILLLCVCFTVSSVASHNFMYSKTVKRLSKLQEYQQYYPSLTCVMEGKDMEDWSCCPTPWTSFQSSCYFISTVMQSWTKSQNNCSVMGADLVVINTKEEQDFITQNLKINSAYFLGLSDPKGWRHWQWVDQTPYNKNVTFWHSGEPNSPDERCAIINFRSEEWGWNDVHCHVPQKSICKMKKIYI

[3] = biological target: T3, human CLEC4A (human, UniProt Q9UMR7 70-237, limits assumed); assay: ELISA, coated protein 1 µg/ml
T3 sequence (looked up): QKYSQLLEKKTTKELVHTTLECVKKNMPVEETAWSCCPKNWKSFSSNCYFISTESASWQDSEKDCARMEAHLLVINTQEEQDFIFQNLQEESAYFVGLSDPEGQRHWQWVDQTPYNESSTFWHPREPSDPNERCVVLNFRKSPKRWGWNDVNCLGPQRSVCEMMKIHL

[4] = biological target: T4, human CLEC4E (human, UniProt Q9ULY5 41-219, limits assumed); assay: ELISA, coated protein 1 µg/ml
T4 sequence (looked up): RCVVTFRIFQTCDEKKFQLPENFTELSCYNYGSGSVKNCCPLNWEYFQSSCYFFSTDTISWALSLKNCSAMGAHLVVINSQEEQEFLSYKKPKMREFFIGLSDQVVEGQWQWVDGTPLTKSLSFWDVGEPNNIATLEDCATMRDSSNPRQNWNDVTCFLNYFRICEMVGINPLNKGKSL

[5] = biological target: T5, human CLEC4D (human, UniProt Q8WXI8 39-215, limits assumed); assay: ELISA, coated protein 1 µg/ml
T5 sequence (looked up): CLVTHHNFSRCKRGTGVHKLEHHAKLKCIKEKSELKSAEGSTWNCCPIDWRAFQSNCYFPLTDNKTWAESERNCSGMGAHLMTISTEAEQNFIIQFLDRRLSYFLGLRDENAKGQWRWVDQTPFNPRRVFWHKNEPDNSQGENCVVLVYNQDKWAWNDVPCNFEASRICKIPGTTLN

[6] = biological target: T6, human CLEC6A (human, UniProt Q6EIG7 42-209, limits assumed); assay: ELISA, coated protein 1 µg/ml
T6 sequence (looked up): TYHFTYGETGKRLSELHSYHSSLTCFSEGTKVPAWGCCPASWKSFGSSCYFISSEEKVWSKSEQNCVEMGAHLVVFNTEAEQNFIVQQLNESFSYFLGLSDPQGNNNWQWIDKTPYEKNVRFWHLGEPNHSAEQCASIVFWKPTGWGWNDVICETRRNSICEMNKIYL

[7] = biological target: T7, Human BDCA-2 protein (soluble, Octet analyte) (human, UniProt Q8WTT0 45-213, limits assumed); assay: BLI (Octet Red96e), antibody on anti-human IgG sensor, human BDCA-2 protein in solution
T7 construct: Soluble protein used as analyte in BLI
T7 sequence (looked up): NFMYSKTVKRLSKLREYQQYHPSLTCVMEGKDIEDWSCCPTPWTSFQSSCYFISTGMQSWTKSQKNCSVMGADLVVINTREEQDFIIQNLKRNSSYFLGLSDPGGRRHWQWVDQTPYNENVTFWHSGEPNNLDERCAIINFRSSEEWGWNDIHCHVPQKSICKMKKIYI

[8] = biological target: T1, human BDCA-2 on cells (Jurkat-hBDCA-2 …); assay: cell-based or functional assay
[9] = biological target: T2, cynomolgus monkey BDCA-2 on cells …; assay: flow cytometry on Jurkat-cynoBDCA-2 cells; remark: listed apart in the source
[10] = biological target: T1, human BDCA-2 on cells (Jurkat-hBDCA-2 …); assay: cell-based or functional assay; remark: listed apart in the source
[11] = biological target: T1, human BDCA-2 on cells (Jurkat-hBDCA-2 …); assay: flow cytometry on Jurkat-hBDCA-2 cells; remark: listed apart in the source
[12] = biological target: T1, human BDCA-2 on cells (Jurkat-hBDCA-2 …); assay: cell-based or functional assay; remark: listed apart in the source
[13] = biological target: human FcγRIIIa (158V) on Jurkat-human FcγRIIIa (158V)-NFAT cells (human, UniProt P08637 17-254); assay: cell-based or functional assay
Sequence of human FcγRIIIa (158V) on Jurkat-human FcγRIIIa (158V)-NFAT cells (P08637 17-254 F176V): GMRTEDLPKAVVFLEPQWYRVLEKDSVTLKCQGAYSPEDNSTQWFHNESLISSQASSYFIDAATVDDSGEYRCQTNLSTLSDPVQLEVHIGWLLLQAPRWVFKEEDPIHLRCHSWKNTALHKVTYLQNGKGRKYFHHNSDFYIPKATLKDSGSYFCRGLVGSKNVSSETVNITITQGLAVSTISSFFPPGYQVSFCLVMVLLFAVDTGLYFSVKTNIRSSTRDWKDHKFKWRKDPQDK

[14] = biological target: T1, human BDCA-2 on cells (Jurkat-hBDCA-2 …); assay: cell-based or functional assay; remark: listed apart in the source
[15] = biological target: T8, cynomolgus monkey BDCA-2 protein (acro, CLC-C52H4) (cynomolgus monkey, UniProt A0A2K5UWP4 45-212); assay: BLI (Octet Red96e), antibody on anti-human IgG sensor, cynomolgus monkey BDCA-2 protein in solution
T8 construct: Bought soluble protein; also called cyno BDCA-2
T8 sequence: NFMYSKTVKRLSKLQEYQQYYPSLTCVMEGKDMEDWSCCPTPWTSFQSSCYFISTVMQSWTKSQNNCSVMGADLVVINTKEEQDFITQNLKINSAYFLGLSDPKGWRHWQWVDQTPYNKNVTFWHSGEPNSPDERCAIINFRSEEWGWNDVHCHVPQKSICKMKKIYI

[16] = biological target: T7, Human BDCA-2 protein (soluble, Octet …); assay: BLI (Octet Red96e), antibody on anti-human IgG sensor, human BDCA-2 protein in solution; remark: listed apart in the source
[17] = biological target: T1, human BDCA-2 on cells (Jurkat-hBDCA-2 …); assay: cell-based or functional assay; remark: listed apart in the source
[18] = biological target: T1, human BDCA-2 on cells (Jurkat-hBDCA-2 …); assay: cell-based or functional assay; remark: listed apart in the source
[19] = biological target: T1, human BDCA-2 on cells (Jurkat-hBDCA-2 …); assay: flow cytometry on Jurkat-hBDCA-2 cells; remark: listed apart in the source
[20] = biological target: T1, human BDCA-2 on cells (Jurkat-hBDCA-2 …); assay: flow cytometry on sorted human pDCs
[21] = biological target: T1, human BDCA-2 on cells (Jurkat-hBDCA-2 …); assay: cell-based or functional assay; remark: listed apart in the source

B1: 17G6A2_hzH2L6_hIgG1 (antibody, V domains shown)
VH: EVQLVESGGGLVKPGGSLRLSCAASGFTFSSYGMSWVRQAPGKGLEWVATISSGDSYTYYPDSVKGRFTISRDNAKNSLYLQMNSLRAEDTAVYYCARQLYYSYGYYFDYWGQGTTVTVSS
VL: DIVLTQSPASLAVSPGQRATITCRASESVSFHGTHLMHWYQQKPGQPPKLLIYAASNLESGVPARFSGSGSGTDFTLTINPVEANDAANYYCQQSIEDPPTFGGGTKVEIKR
notes: Humanized, human IgG1/kappa (hzVH02 + hzVL06)
EC50 [1]: 0.0701 µg/mL
EC50 [2]: 0.106 µg/mL
binding result [3]: no binding (tested: 10 µg/ml)
binding result [4]: no binding (tested: 10 µg/ml)
binding result [5]: no binding (tested: 10 µg/ml)
binding result [6]: no binding (tested: 10 µg/ml)
Kd [7]: 3 nM
koff [7]: 0.000309 s⁻¹
kon [7]: 101000 M⁻¹ s⁻¹
EC50, inhibition of CpGA-induced type I interferon (IFNα) production in human PBMC cells [8]: 0.0017 µg/mL

B2: 17G6A2_hzH2L7_hIgG1 (antibody, V domains shown)
VH: B1 VH
VL: B1 VL with G72E, N85E, A87T
notes: Humanized, human IgG1/kappa (hzVH02 + hzVL07)
EC50 [1]: 0.0608 µg/mL
EC50 [2]: 0.0988 µg/mL
binding result [3]: no binding (tested: 10 µg/ml)
binding result [4]: no binding (tested: 10 µg/ml)
binding result [5]: no binding (tested: 10 µg/ml)
binding result [6]: no binding (tested: 10 µg/ml)
Kd [7]: 1.8 nM
koff [7]: 0.000311 s⁻¹
kon [7]: 174000 M⁻¹ s⁻¹
EC50, inhibition of CpGA-induced type I interferon (IFNα) production in human PBMC cells [8]: 0.0011 µg/mL

B3: 17G6A2_hzH2L8_hIgG1 (antibody, V domains shown)
VH: B1 VH
VL: B1 VL with G72E
notes: Humanized, human IgG1/kappa (hzVH02 + hzVL08)
EC50 [1]: 0.0222 µg/mL
EC50 [2]: 0.0383 µg/mL
binding result [3]: no binding (tested: 10 µg/ml)
binding result [4]: no binding (tested: 10 µg/ml)
binding result [5]: no binding (tested: 10 µg/ml)
binding result [6]: no binding (tested: 10 µg/ml)
Kd [7]: 1.7 nM
koff [7]: 0.000261 s⁻¹
kon [7]: 154000 M⁻¹ s⁻¹
EC50, inhibition of CpGA-induced type I interferon (IFNα) production in human PBMC cells [8]: 0.0011 µg/mL

B6: 17G6A2_hzH1L7_hIgG1 (antibody)
heavy: not shown
light: DIVLTQSPASLAVSPGQRATITCRASESVSFHGTHLMHWYQQKPGQPPKLLIYAASNLESGVPARFSGSGSETDFTLTINPVEAEDTANYYCQQSIEDPPTFGGGTKVEIKRTVAAPSVFIFPPSDEQLKSGTASVVCLLNNFYPREAKVQWKVDNALQSGNSQESVTEQDSKDSTYSLSSTLTLSKADYEKHKVYACEVTHQGLSSPVTKSFNRGEC
notes: Humanized, human IgG1/kappa (hzVH01 + hzVL07)
EC50, activation of Jurkat-human FcγR IIIa (158V)-NFAT cell line with Jurkat-hBDCA-2 target cells [13]: 0.005 µg/mL
EC50 [1]: 0.0595 µg/mL
EC50, inhibition of immune complex-induced type I interferon (IFNα) production by human pDC cells [14]: 1 ng/mL
Kd [15]: 4.8 nM
koff [15]: 0.00064 s⁻¹
kon [15]: 130000 M⁻¹ s⁻¹
EC50 [2]: 0.0944 µg/mL
binding result [3]: no binding (tested: 10 µg/ml)
binding result [4]: no binding (tested: 10 µg/ml)
binding result [5]: no binding (tested: 10 µg/ml)
binding result [6]: no binding (tested: 10 µg/ml)
Kd [7]: 2.9 nM
koff [7]: 0.000523 s⁻¹
kon [7]: 179000 M⁻¹ s⁻¹
EC50, inhibition of CpGA-induced type I interferon (IFNα) production in human PBMC cells [8]: 0.0011 µg/mL

More lines, now with the values ahead:

EC50 [9]: 0.233 µg/mL
EC50, inhibition of CpGA-induced type I interferon (IFNα) production in human PBMC cells [10]: 0.002 µg/mL
EC50 [11]: 0.189 µg/mL
B4: 164C11B8 (murine hybridoma monoclonal antibody) (antibody, V domains shown)
VH: DVILVESGGGLVKPGGSLKLSCAASGITFSTYTMSWLRQTPEKRLEWVATINSGGDNTYYPDSVKGRFTISRDNAKNNLYLQMSSLKSEDTALYYCATYRPYYYGSVLDYWGQGTTLTVSS
VL: DIVLTQSPASLAVSLGQRATISCKASQSVDYDGNSYVNWYQQKPGQPPKLLIYGASNLESGIPDRFSGSGSGTDFTLNIHPVEEEDGATYYCQQSDEDPWTFGGGTKLEIR
notes: Mouse antibody from hybridoma; also called hybridoma 164C11B8; hybridoma antibody 164C11B8

EC50 [9]: 0.107 µg/mL
EC50, inhibition of CpGA-induced type I interferon (IFNα) production in human PBMC cells [12]: 0.0542 µg/mL
EC50 [11]: 0.0968 µg/mL
B5: 17G6A2 (murine hybridoma monoclonal antibody) (antibody, V domains shown)
VH: EVQLVESGGDLVKPGGSLKLSCAASGFTFSSYGMSWVRQTPDKRLEWVATISSGDSYTYYPDSVKGRFTISRDNAKNTLYLQMSSLKSEDTAMYYCARQLYYSYGYYFDYWGQGTTLTVSS
VL: DIVLTQSPASLAVSLGQRATISCRASESVSFHGTHLMHWYQQKPGQPPKLLIYAASNLESGVPARFSGSGSETDFTLNIHPVEEEDAATYFCQQSIEDPPTFGGGTKLEIK
notes: also called hybridoma 17G6A2; hybridoma antibody 17G6A2

Kd [16]: 1.9 nM
EC50, inhibition of CpGA-induced type I interferon (IFNα) production in human PBMC cells [12]: 0.0132 µg/mL
EC50, inhibition of immune complex-induced type I interferon (IFNα) in human pDC cells [17]: 6.1 ng/mL
EC50, inhibition of CpGA-induced type I interferon (IFNα) production in human PBMC cells [18]: 0.0025 µg/mL
EC50 [1]: 0.0704 µg/mL
EC50, inhibition of CpGA-induced type I interferon (IFNα) production in human PBMC cells [10]: 0.0031 µg/mL
EC50 [19]: 0.175 µg/mL
EC50, inhibition of immune complex-induced type I interferon (IFNα) production by human pDC cells [14]: 2.1 ng/mL
EC50 [11]: 0.224 µg/mL
EC50 [20]: 0.281 µg/mL
EC50, inhibition of immune complex-induced type I interferon (IFNα) in human pDC cells [21]: 33.4 ng/mL
Kd [7]: 3.9 nM
EC50, inhibition of CpGA-induced type I interferon (IFNα) production in human PBMC cells [8]: 0.0021 µg/mL
B7: BIIB059 (antibody)
chain 1: not shown
chain 2: DIQLTQSPSSLSASVGDRVTITCKASQSVDYDGDSYMNWYQQKPGKAPKLLIYAASTLESGVPSRFSGSGSGTDFTLTISSLQPEDFATYYCQQANEDPRTFGQGTKVEIKRTVAAPSVFIFPPSDEQLKSGTASVVCLLNNFYPREAKVQWKVDNALQSGNSQESVTEQDSKDSTYSLSSTLTLSKADYEKHKVYACEVTHQGLSSPVTKSFNRGEC
